Positions count from the first letter of the chain named.
How the values were obtained:
human KLRB1 ECD = human KLRB1 ECD (human); test: ELISA
[1] = target: T1, cynomolgus KLRB1 on CHO-K1 (cynomolgus); test: FACS
T1 chain: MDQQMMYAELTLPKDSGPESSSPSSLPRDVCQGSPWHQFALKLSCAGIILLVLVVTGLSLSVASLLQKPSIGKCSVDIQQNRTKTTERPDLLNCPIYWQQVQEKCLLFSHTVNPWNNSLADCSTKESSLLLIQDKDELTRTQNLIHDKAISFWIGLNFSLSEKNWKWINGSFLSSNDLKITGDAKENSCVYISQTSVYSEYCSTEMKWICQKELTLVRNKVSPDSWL

human KLRB1 on CHO-K1 [2] = target: human KLRB1 on CHO-K1 (human); test: competition, CLEC2D, FACS
cynomolgus KLRB1 ECD = target: T2, cynomolgus KLRB1 ECD (cynomolgus); test: ELISA
T2 chain: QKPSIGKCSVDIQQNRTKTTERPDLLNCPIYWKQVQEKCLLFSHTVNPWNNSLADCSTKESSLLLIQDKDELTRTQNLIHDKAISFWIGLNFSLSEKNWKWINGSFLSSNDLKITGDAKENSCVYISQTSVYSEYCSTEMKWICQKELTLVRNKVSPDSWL

human KLRB1 on CHO-K1 [3] = target: human KLRB1 on CHO-K1 (human); test: FACS

human KLRB1 on CHO-K1 (human), sequence (chain, as listed by the source): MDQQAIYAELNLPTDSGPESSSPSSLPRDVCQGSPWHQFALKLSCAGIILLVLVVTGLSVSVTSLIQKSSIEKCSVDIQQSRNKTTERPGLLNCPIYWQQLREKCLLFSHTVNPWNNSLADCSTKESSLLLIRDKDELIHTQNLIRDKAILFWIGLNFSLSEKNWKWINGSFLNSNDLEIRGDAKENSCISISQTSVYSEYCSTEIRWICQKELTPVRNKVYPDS
human KLRB1 ECD (human), sequence (chain, as listed by the source): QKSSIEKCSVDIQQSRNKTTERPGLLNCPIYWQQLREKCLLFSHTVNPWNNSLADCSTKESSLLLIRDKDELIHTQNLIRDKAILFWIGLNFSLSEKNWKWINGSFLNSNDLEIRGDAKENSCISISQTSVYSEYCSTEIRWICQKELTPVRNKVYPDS

B1: Hu47A5H2-14 (antibody, V domains shown)
VH: QVQLVQSGAEVKKPGASVKVSCKGSGYSFTGYWMHWVRQAPGQGLEWMGMIHPSDSETRLNQKFKDKVTMTVDKSTSTVYMELSSLRSEDTAVYYCASEGLRRGSFAYWGQGTLVTVSS
VL: DIVLTQSPDSLAVSLGERATINCRASESVDNYGMTFMSWYQQKPGQPPKLLIYAASNQGSGVPDRFSGSGSGTDFTLTISSLQAEDVAVYYCQQSKEVPYTFGQGTKLEIK
EC50 (human KLRB1 ECD): 0.0309 nM
EC50 [1]: ~1.82 nM
IC50 (human KLRB1 on CHO-K1 [2]): 2.54 nM
EC50 (cynomolgus KLRB1 ECD): 0.0414 nM
EC50 (human KLRB1 on CHO-K1 [3]): 2.12 nM

B2: Hu47A5H2-15 (antibody, V domains shown)
VH: B1 VH
VL: B1 VL with Y40F
EC50 (human KLRB1 ECD): 0.0241 nM
EC50 [1]: ~1.74 nM
IC50 (human KLRB1 on CHO-K1 [2]): 2.47 nM
EC50 (cynomolgus KLRB1 ECD): 0.00973 nM
EC50 (human KLRB1 on CHO-K1 [3]): 1.98 nM

B3: Hu47A5H2-16 (antibody, V domains shown)
VH: B1 VH
VL: EIVLTQSPATLSLSPGERATLSCRASESVDNYGMTFMSWYQQKPGQAPRLLIYAASNQGSGIPARFSGSGSGTDFTLTISSLEPEDFAVYYCQQSKEVPYTFGQGTKLEIK
EC50 (human KLRB1 ECD): 0.0287 nM
EC50 [1]: ~1.8 nM
IC50 (human KLRB1 on CHO-K1 [2]): 2.41 nM
EC50 (cynomolgus KLRB1 ECD): 0.0429 nM
EC50 (human KLRB1 on CHO-K1 [3]): 2.11 nM

B4: Hu47A5H2-03 (antibody, V domains shown)
VH: B1 VH with G24A, K67R, V72R, K74T
VL: B1 VL with Y40F
EC50 (human KLRB1 ECD): 0.0205 nM
EC50 [1]: 11.6 nM
IC50 (human KLRB1 on CHO-K1 [2]): 2.31 nM
EC50 (cynomolgus KLRB1 ECD): 0.0137 nM
EC50 (human KLRB1 on CHO-K1 [3]): 1.73 nM

B5: Hu47A5H2-10 (antibody, V domains shown)
VH: B1 VH with G24A, K67R
VL: B1 VL
EC50 (human KLRB1 ECD): 0.0272 nM
EC50 [1]: ~1.65 nM
IC50 (human KLRB1 on CHO-K1 [2]): 1.96 nM
EC50 (cynomolgus KLRB1 ECD): 0.0174 nM
EC50 (human KLRB1 on CHO-K1 [3]): 0.88 nM

B6: Hu47A5H2-06 (antibody, V domains shown)
VH: B1 VH with G24A, K67R, K74T
VL: B1 VL
EC50 (human KLRB1 ECD): 0.0204 nM
EC50 [1]: 6.62 nM
IC50 (human KLRB1 on CHO-K1 [2]): 2.66 nM
EC50 (cynomolgus KLRB1 ECD): 0.0562 nM
EC50 (human KLRB1 on CHO-K1 [3]): 1.67 nM

B7: Hu47A5H2-02 (antibody, V domains shown)
VH: B1 VH with G24A, K67R, V72R, K74T
VL: B1 VL
EC50 (human KLRB1 ECD): 0.0198 nM
EC50 [1]: 7.51 nM
IC50 (human KLRB1 on CHO-K1 [2]): 2.05 nM
EC50 (cynomolgus KLRB1 ECD): 0.0372 nM
EC50 (human KLRB1 on CHO-K1 [3]): 2.08 nM

B8: Hu47A5H2-13 (antibody, V domains shown)
VH: B1 VH
VL: B1 VL with L4M
EC50 (human KLRB1 ECD): 0.0266 nM
EC50 [1]: ~1.81 nM
IC50 (human KLRB1 on CHO-K1 [2]): 2.31 nM
EC50 (cynomolgus KLRB1 ECD): 0.0984 nM
EC50 (human KLRB1 on CHO-K1 [3]): 1.79 nM

B9: Hu47A5H2-09 (antibody, V domains shown)
VH: B1 VH with G24A, K67R
VL: B1 VL with L4M
EC50 (human KLRB1 ECD): 0.0273 nM
EC50 [1]: ~1.86 nM
IC50 (human KLRB1 on CHO-K1 [2]): 2.22 nM
EC50 (cynomolgus KLRB1 ECD): 0.0283 nM
EC50 (human KLRB1 on CHO-K1 [3]): 1.96 nM

B10: Hu47A5H2-04 (antibody, V domains shown)
VH: B1 VH with G24A, K67R, V72R, K74T
VL: B3 VL
EC50 (human KLRB1 ECD): 0.0212 nM
EC50 [1]: 4.71 nM
IC50 (human KLRB1 on CHO-K1 [2]): 2.53 nM
EC50 (cynomolgus KLRB1 ECD): 0.0441 nM
EC50 (human KLRB1 on CHO-K1 [3]): 1.67 nM

B11: Hu47A5H2-01 (antibody, V domains shown)
VH: B1 VH with G24A, K67R, V72R, K74T
VL: B1 VL with L4M
EC50 (human KLRB1 ECD): 0.0195 nM
EC50 [1]: 7.76 nM
IC50 (human KLRB1 on CHO-K1 [2]): 1.59 nM
EC50 (cynomolgus KLRB1 ECD): 0.116 nM
EC50 (human KLRB1 on CHO-K1 [3]): 2.65 nM

— US20260356955 (published 2026)
